Consider 14 molecules from PMC314469, “Protein Interaction Networks by Proteome Peptide Scanning” (PLoS Biology, 2004).

Sequences and labels used below:
T1: Boi1 SH3 (BOI1_YEAST), P38041
T1 chain: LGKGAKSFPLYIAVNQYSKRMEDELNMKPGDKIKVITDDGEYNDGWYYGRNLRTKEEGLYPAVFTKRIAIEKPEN

T2: Boi2 SH3 (BOI2_YEAST), P39969
T2 chain: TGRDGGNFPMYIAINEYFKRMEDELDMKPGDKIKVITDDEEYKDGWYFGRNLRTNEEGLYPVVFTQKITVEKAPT

T3: Myo5 SH3 (MYO5_YEAST), Q04439
T3 chain: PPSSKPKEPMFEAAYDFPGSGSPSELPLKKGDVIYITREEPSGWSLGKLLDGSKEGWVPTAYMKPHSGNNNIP

T4: Rvs167 SH3 (RV167_YEAST), P39743
T4 chain: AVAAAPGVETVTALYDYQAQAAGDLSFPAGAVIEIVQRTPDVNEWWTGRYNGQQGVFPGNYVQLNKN

T5: Yfr024 SH3 (LSB3_YEAST), P43603
T5 chain: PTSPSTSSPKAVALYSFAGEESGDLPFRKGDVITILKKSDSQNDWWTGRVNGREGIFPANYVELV

T6: Yhr016c SH3 (YSC84_YEAST), P32793
T6 chain: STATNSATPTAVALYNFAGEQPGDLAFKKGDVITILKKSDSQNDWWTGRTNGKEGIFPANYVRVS

B1: YDL229W 462-475 (peptide)
chain: EFDLKNIPMMPAGE
B2: YOL047C 317-330 (peptide)
chain: EIKDRDQPAVPPSP
B3: YPR097W 343-356 (peptide)
chain: EFPGKKSPRLPHRN
B4: YHR047C 776-789 (peptide)
chain: EIAKRLQPGSPVLG
B5: YGR020C 93-106 (peptide)
chain: EIPSKDHPYDPEKD
B6: YGL122C 259-272 (peptide)
chain: EGRSRLFPHSPLGR
B7: YJR122W 96-109 (peptide)
chain: EGTTKVDPIIPVPE
B8: YDR008C 96-109 (peptide)
chain: EFQSKSSPVPPASE
B9: YER025W 296-309 (peptide)
chain: EFIVKTIPVPPRDF
B10: YMR021C 127-140 (peptide)
chain: EFLRKHSPKAPATG
B11: YDR123C 192-205 (peptide)
chain: EFTTREGPHQPIGN
B12: YML010W 68-81 (peptide)
chain: EKEAKSEPQQPEDN
B13: YCL024W 744-757 (peptide)
chain: EFLIKEDPDLPPQG
B14: YOR233W 329-342 (peptide)
chain: EHLQKERPKPPNKG

The target of one experiment is T1, Boi1 SH3 (BOI1_YEAST), P38041. Description: SPOT array.
The molecule B1 registered a normalised SPOT signal, Boehringer light units (BLU); mean over the file's lines of this peptide of 18.6.
The molecule B2 gave a normalised SPOT signal, Boehringer light units (BLU); mean over the file's lines of this peptide of 5.1.
The molecule B3 displayed a normalised SPOT signal, Boehringer light units (BLU); mean over the file's lines of this peptide of 1090.
For B4, the normalised SPOT signal, Boehringer light units (BLU); mean over the file's lines of this peptide worked out at 26.9.
B5 gave a normalised SPOT signal, Boehringer light units (BLU); mean over the file's lines of this peptide of 51.8.
The same measure, in the same setting: next, B6: 14900.
In turn, B7 displayed a normalised SPOT signal, Boehringer light units (BLU); mean over the file's lines of this peptide of 57.3.
On the same count and under the same terms, next, B8: 1430; B9: 15; B10: 620.
Consider B11, for which the normalised SPOT signal, Boehringer light units (BLU); mean over the file's lines of this peptide was 268.
Same read-out and setting: next, B12: 22.6; B13: 78.
Molecule B14 came in with a normalised SPOT signal, Boehringer light units (BLU); mean over the file's lines of this peptide of 744.

The next experiment addresses T2, Boi2 SH3 (BOI2_YEAST), P39969. Description: SPOT array.
Regarding B1, the normalised SPOT signal, Boehringer light units (BLU); mean over the file's lines of this peptide was found to be 9.1.
As to B2, the normalised SPOT signal, Boehringer light units (BLU); mean over the file's lines of this peptide stood at 20.6.
On to B3, for which the normalised SPOT signal, Boehringer light units (BLU); mean over the file's lines of this peptide came to 42.9.
Consider B4, for which the normalised SPOT signal, Boehringer light units (BLU); mean over the file's lines of this peptide came to 8.9.
On to B5, for which the normalised SPOT signal, Boehringer light units (BLU); mean over the file's lines of this peptide was found to be 7.3.
On to B6, for which the normalised SPOT signal, Boehringer light units (BLU); mean over the file's lines of this peptide amounted to 165.
Take B7: the normalised SPOT signal, Boehringer light units (BLU); mean over the file's lines of this peptide worked out at 1.6.
In turn, B8 gave a normalised SPOT signal, Boehringer light units (BLU); mean over the file's lines of this peptide of 26.5.
For the molecule B9, the normalised SPOT signal, Boehringer light units (BLU); mean over the file's lines of this peptide is 13.8.
Still for that read-out and setting: next, B10: 37.3; B11: 0.
As for B12, the normalised SPOT signal, Boehringer light units (BLU); mean over the file's lines of this peptide was found to be 17.9.
Same read-out and setting: next, B13: 69.1.
As to B14, the normalised SPOT signal, Boehringer light units (BLU); mean over the file's lines of this peptide was found to be 29.7.

The next experiment addresses T3, Myo5 SH3 (MYO5_YEAST), Q04439. Description: SPOT array.
B1 came in with a normalised SPOT signal, Boehringer light units (BLU); mean over the file's lines of this peptide of 106.
B2 returned a normalised SPOT signal, Boehringer light units (BLU); mean over the file's lines of this peptide of 108.
As for B3, the normalised SPOT signal, Boehringer light units (BLU); mean over the file's lines of this peptide stood at 368.
For the molecule B4, the normalised SPOT signal, Boehringer light units (BLU); mean over the file's lines of this peptide is 172.
Same read-out and setting: next, B5: 51.8; B6: 141.
Still for that read-out and setting: next, B7: 180; B8: 78.8; B9: 115.
B10: the normalised SPOT signal, Boehringer light units (BLU); mean over the file's lines of this peptide was found to be 413.
In the case of B11, the normalised SPOT signal, Boehringer light units (BLU); mean over the file's lines of this peptide was determined as 79.8.
Still for that read-out and setting: next, B12: 139; B13: 175; B14: 364.

The target of a further experiment is T4, Rvs167 SH3 (RV167_YEAST), P39743. Nature of the experiment: SPOT array.
Regarding B1, the normalised SPOT signal, Boehringer light units (BLU); mean over the file's lines of this peptide came to 74.1.
On the same count and under the same terms, next, B2: 67.9.
For the molecule B3, the normalised SPOT signal, Boehringer light units (BLU); mean over the file's lines of this peptide was 3000.
The molecule B4 had a normalised SPOT signal, Boehringer light units (BLU); mean over the file's lines of this peptide of 116.
Same read-out and setting: next, B5: 0; B6: 393; B7: 53.1.
The molecule B8 gave a normalised SPOT signal, Boehringer light units (BLU); mean over the file's lines of this peptide of 83.5.
In the case of B9, the normalised SPOT signal, Boehringer light units (BLU); mean over the file's lines of this peptide is 30.4.
Same read-out and setting: next, B10: 126.
For B11, the normalised SPOT signal, Boehringer light units (BLU); mean over the file's lines of this peptide is 29.4.
With B12, the normalised SPOT signal, Boehringer light units (BLU); mean over the file's lines of this peptide is 19.4.
In the case of B13, the normalised SPOT signal, Boehringer light units (BLU); mean over the file's lines of this peptide is 134.
On the same count and under the same terms, next, B14: 112.

In another experiment the target is Sho1 SH3 (SHO1_YEAST), P40073. Nature of the experiment: SPOT array.
Sho1 SH3 (SHO1_YEAST), P40073, sequence (P40073 295-366): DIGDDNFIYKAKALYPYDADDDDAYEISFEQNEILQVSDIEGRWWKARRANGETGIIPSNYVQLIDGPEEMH
In the case of B1, the normalised SPOT signal, Boehringer light units (BLU); mean over the file's lines of this peptide was determined as 37.1.
In turn, B2 gave a normalised SPOT signal, Boehringer light units (BLU); mean over the file's lines of this peptide of 20.2.
Still for that read-out and setting: next, B3: 71.6.
On the same count and under the same terms, next, B4: 22; B5: 31.1; B6: 41.4.
Take B7: the normalised SPOT signal, Boehringer light units (BLU); mean over the file's lines of this peptide was found to be 70.4.
Same read-out and setting: next, B8: 34.9; B9: 57.2.
In turn, B10 registered a normalised SPOT signal, Boehringer light units (BLU); mean over the file's lines of this peptide of 91.
B11 came in with a normalised SPOT signal, Boehringer light units (BLU); mean over the file's lines of this peptide of 43.5.
Molecule B12 showed a normalised SPOT signal, Boehringer light units (BLU); mean over the file's lines of this peptide of 53.3.
B13 yielded a normalised SPOT signal, Boehringer light units (BLU); mean over the file's lines of this peptide of 65.4.
The molecule B14 came in with a normalised SPOT signal, Boehringer light units (BLU); mean over the file's lines of this peptide of 54.5.

The next experiment addresses T5, Yfr024 SH3 (LSB3_YEAST), P43603. Description: SPOT array.
Take B1: the normalised SPOT signal, Boehringer light units (BLU); mean over the file's lines of this peptide turned out to be 112.
Consider B2, for which the normalised SPOT signal, Boehringer light units (BLU); mean over the file's lines of this peptide is 8.7.
B3 displayed a normalised SPOT signal, Boehringer light units (BLU); mean over the file's lines of this peptide of 8340.
In the case of B4, the normalised SPOT signal, Boehringer light units (BLU); mean over the file's lines of this peptide amounted to 126.
Molecule B5 had a normalised SPOT signal, Boehringer light units (BLU); mean over the file's lines of this peptide of 0.
As for B6, the normalised SPOT signal, Boehringer light units (BLU); mean over the file's lines of this peptide was determined as 2220.
Still for that read-out and setting: next, B7: 0; B8: 7.3; B9: 202.
In turn, B10 returned a normalised SPOT signal, Boehringer light units (BLU); mean over the file's lines of this peptide of 227.
Still for that read-out and setting: next, B11: 9.9; B12: -0.
For the molecule B13, the normalised SPOT signal, Boehringer light units (BLU); mean over the file's lines of this peptide came to 8.1.
Same read-out and setting: next, B14: 824.

The target in a further experiment is T6, Yhr016c SH3 (YSC84_YEAST), P32793. Nature of the experiment: SPOT array.
Consider B1, for which the normalised SPOT signal, Boehringer light units (BLU); mean over the file's lines of this peptide was 32.3.
B2 gave a normalised SPOT signal, Boehringer light units (BLU); mean over the file's lines of this peptide of -0.
Molecule B3 had a normalised SPOT signal, Boehringer light units (BLU); mean over the file's lines of this peptide of 7160.
Consider B4, for which the normalised SPOT signal, Boehringer light units (BLU); mean over the file's lines of this peptide amounted to 58.7.
B5 returned a normalised SPOT signal, Boehringer light units (BLU); mean over the file's lines of this peptide of 6.
Molecule B6 came in with a normalised SPOT signal, Boehringer light units (BLU); mean over the file's lines of this peptide of 90.9.
Take B7: the normalised SPOT signal, Boehringer light units (BLU); mean over the file's lines of this peptide worked out at 0.
B8: the normalised SPOT signal, Boehringer light units (BLU); mean over the file's lines of this peptide stood at 49.9.
Molecule B9 displayed a normalised SPOT signal, Boehringer light units (BLU); mean over the file's lines of this peptide of 44.4.
B10 registered a normalised SPOT signal, Boehringer light units (BLU); mean over the file's lines of this peptide of 13.2.
Molecule B11 gave a normalised SPOT signal, Boehringer light units (BLU); mean over the file's lines of this peptide of 34.5.
B12 displayed a normalised SPOT signal, Boehringer light units (BLU); mean over the file's lines of this peptide of 8.8.
On the same count and under the same terms, next, B13: 51.8; B14: 55.1.
